Source: patent publication US20190330347A1 (published 2019)

Biological target: biotin-labeled PD-1 antigen (UniProt Q15116 25-167, biotin-labeled (site not stated))
Experiment: BLI (Fortebio)

biotin-labeled PD-1 antigen, sequence (Q15116 25-167): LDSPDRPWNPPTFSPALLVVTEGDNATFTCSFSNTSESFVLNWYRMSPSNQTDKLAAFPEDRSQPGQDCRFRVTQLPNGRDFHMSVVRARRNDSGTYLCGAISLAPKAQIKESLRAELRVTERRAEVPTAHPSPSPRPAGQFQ

B1: humanized H8L2 antibody (IgG-like antibody H8L2 against PD-1) (antibody)
heavy: EVQLVQSGGGLVQPGGSLKLSCAASGFTFSSYGMSWVRQAPGKGLDWVATISGGGRDTYYPDSVKGRFTISRDNSKNNLYLQMNSLRAEDTALYYCARQKGEAWFAYWGQGTLVTVSSASTKGPSVFPLAPCSRSTSESTAALGCLVKDYFPEPVTVSWNSGALTSGVHTFPAVLQSSGLYSLSSVVTVPSSSLGTKTYTCNVDHKPSNTKVDKRVESKYGPPCPPCPAPEFLGGPSVFLFPPKPKDTLMITRTPEVTCVVVDVSQEDPEVQFNWYVDGVEVHNAKTKPREEQFNSTYRVVSVLTPLHQDWLNGKEYKCKVSNKGLPSSIEKTISKAKGQPREPQVYTLPPSQEEMTKNQVSLTCLVKGFYPSDIAVEWESNGQPENNYKTTPPVLDSDGSFFLYSRLTVDKSRWQEGNVFSCSVMHEALHAHYTQKSLSLSLGK
light: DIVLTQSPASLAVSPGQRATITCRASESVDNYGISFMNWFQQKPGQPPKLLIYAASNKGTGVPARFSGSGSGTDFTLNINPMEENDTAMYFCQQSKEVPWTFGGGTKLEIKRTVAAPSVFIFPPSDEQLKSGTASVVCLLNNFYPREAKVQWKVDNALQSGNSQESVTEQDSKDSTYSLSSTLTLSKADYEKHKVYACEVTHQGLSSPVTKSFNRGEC
  Kd: 0.103 nM
